Source: patent US20220106400A1

Assays:
hCD64 (FcgRI) (human) [1] = biological target: hCD64 (FcgRI) (human) (UniProt P12314); assay: told in the description as a result of the Examples; method not given
[2] = biological target: human GITR on activated human CD4 T cells (human) (UniProt Q9Y5U5); assay: FACS binding to anti-CD3/CD28-activated human CD4 T cells
hCD64 (FcgRI) (human) [3] = biological target: hCD64 (FcgRI) (human) (UniProt P12314); assay: FcR binding, Example 16

Sequence of hCD64 (FcgRI) (human) (P12314 16-288 limits assumed): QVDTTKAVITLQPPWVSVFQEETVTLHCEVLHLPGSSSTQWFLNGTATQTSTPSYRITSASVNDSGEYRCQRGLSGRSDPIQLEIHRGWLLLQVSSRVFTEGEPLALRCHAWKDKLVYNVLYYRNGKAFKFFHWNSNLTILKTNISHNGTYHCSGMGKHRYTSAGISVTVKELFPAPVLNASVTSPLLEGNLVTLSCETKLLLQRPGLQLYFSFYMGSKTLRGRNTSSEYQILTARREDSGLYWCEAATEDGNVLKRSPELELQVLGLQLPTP
Sequence of human GITR on activated human CD4 T cells (human) (Q9Y5U5 26-241): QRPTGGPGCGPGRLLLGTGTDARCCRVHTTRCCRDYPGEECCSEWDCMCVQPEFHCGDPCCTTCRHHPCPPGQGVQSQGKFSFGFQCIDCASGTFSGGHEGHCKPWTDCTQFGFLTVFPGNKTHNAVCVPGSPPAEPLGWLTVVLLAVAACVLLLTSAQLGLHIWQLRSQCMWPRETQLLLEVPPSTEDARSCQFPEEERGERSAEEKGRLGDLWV

| EC50 [2] [nM] | Substance | other results |
| --- | --- | --- |
| – | antibody with IgG1 P238K (Example 13) | fold reduction of binding relative to wildtype IgG1 (hCD64 (FcgRI) (human) [1]): 100 fold |
| 6.72 | unrelated hIgG2 | – |
| 132 | unrelated hIgG1 | – |
| – | antibody with IgG1f-L235E-P238K heavy chain constant domain (Example 16) | fold reduction of CD64 binding against P238K alone (hCD64 (FcgRI) (human) [3]): 1000 fold |
